Reference: article doi:10.1101/2022.05.13.491800 (bioRxiv, 2022)

B1: Smc6 (natural protein, S. cerevisiae, UniProt Q12749 1-1114, looked up)
chain: MISTTISGKRPIEQVDDELLSLTAQQENEEQQQQRKRRRHQFAPMTQFNSNTLDEDSGFRSSSDVATADQDNFLEESPSGYIKKVILRNFMCHEHFELELGSRLNFIVGNNGSGKSAILTAITIGLGAKASETNRGSSLKDLIREGCYSAKIILHLDNSKYGAYQQGIFGNEIIVERIIKRDGPASFSLRSENGKEISNKKKDIQTVVDYFSVPVSNPMCFLSQDAARSFLTASTSQDKYSHFMKGTLLQEITENLLYASAIHDSAQENMALHLENLKSLKAEYEDAKKLLRELNQTSDLNERKMLLQAKSLWIDVAHNTDACKNLENEISGIQQKVDEVTEKIRNRQEKIERYTSDGTTIEAQIDAKVIYVNEKDSEHQNARELLRDVKSRFEKEKSNQAEAQSNIDQGRKKVDALNKTIAHLEEELTKEMGGDKDQMRQELEQLEKANEKLREVNNSLVVSLQDVKNEERDIQHERESELRTISRSIQNKKVELQNIAKGNDTFLMNFDRNMDRLLRTIEQRKNEFETPAIGPLGSLVTIRKGFEKWTRSIQRAISSSLNAFVVSNPKDNRLFRDIMRSCGIRSNIPIVTYCLSQFDYSKGRAHGNYPTIVDALEFSKPEIECLFVDLSRIERIVLIEDKNEARNFLQRNPVNVNMALSLRDRRSGFQLSGGYRLDTVTYQDKIRLKVNSSSDNGTQYLKDLIEQETKELQNIRDRYEEKLSEVRSRLKEIDGRLKSTKNEMRKTNFRMTELKMNVGKVVDTGILNSKINERKNQEQAIASYEAAKEELGLKIEQIAQEAQPIKEQYDSTKLALVEAQDELQQLKEDINSRQSKIQKYKDDTIYYEDKKKVYLENIKKIEVNVAALKEGIQRQIQNACAFCSKERIENVDLPDTQEEIKRELDKVSRMIQKAEKSLGLSQEEVIALFEKCRNKYKEGQKKYMEIDEALNRLHNSLKARDQNYKNAEKGTCFDADMDFRASLKVRKFSGNLSFIKDTKSLEIYILTTNDEKARNVDTLSGGEKSFSQMALLLATWKPMRSRIIALDEFDVFMDQVNRKIGTTLIVKKLKDIARTQTIIITPQDIGKIADIDSSGVSIHRMRDPERQNNSNFYN
B2: Nse5 (natural protein, S. cerevisiae, UniProt Q03718 1-556, looked up)
chain: MDGALINSVLYVSPRNGAHYFVELTEKHLLAFEMLNSMCLLENYDHVLLFLECQFGKSHNLAVIPFDIILVLFTLSTLSEYYKEPILRANDPYNTSRETLSRRALKLLQKYLAILKEFDSEQYNLYDLELLRCQFFLAIDTLTPKKQKWGFDRFRRTKSESGVTYRQNASVDPELDQAKTFKNPYRSYISCLEQRNTILGNRLLNLKLNEPGEFINMILWTLSNSLQESTPLFLSSHEIWMPLLEILIDLFSCRQDYFIQHEVAQNVSKSLFVQRLSESPLAVFFESLNTRNFANRFSEYVFLNCDYKLPSDNYATPVHPVYNGENTIVDTYIPTIKCSPLYKSQKSLALRRKLIGSCFKLLLRVPDGHRLITPRIVADDVIQGISRTLASFNDILQFKKFFMTENLSQESYFIPLLAEGTLSEILKDTQECVVILTLVENLSDGVSFCNEVIGLVKSKCFAFTEQCSQASYEEAVLNIEKCDVCLLVLLRYLLHLIGTEAILDAKEQLEMLHAIEKNDSGRRQWAKALNLGNDPPLLYPIVSQMFGVHDKSVIIE
B3: Smc5 (natural protein, S. cerevisiae, UniProt Q08204 1-1093, looked up)
chain: MTSLIDLGRYVERTHHGEDTEPRSKRVKIAKPDLSSFQPGSIIKIRLQDFVTYTLTEFNLSPSLNMIIGPNGSGKSTFVCAVCLGLAGKPEYIGRSKKVEDFIKNGQDVSKIEITLKNSPNVTDIEYIDARDETIKITRIITRSKRRSDYLINDYQVSESVVKTLVAQLNIQLDNLCQFLSQERVEEFARLKSVKLLVETIRSIDASLLDVLDELRELQGNEQSLQKDLDFKKAKIVHLRQESDKLRKSVESLRDFQNKKGEIELHSQLLPYVKVKDHKEKLNIYKEEYERAKANLRAILKDKKPFANTKKTLENQVEELTEKCSLKTDEFLKAKEKINEIFEKLNTIRDEVIKKKNQNEYYRGRTKKLQATIISTKEDFLRSQEILAQTHLPEKSVFEDIDIKRKEIINKEGEIRDLISEIDAKANAINHEMRSIQRQAESKTKSLTTTDKIGILNQDQDLKEVRDAVLMVREHPEMKDKILEPPIMTVSAINAQFAAYLAQCVDYNTSKALTVVDSDSYKLFANPILDKFKVNLRELSSADTTPPVPAETVRDLGFEGYLSDFITGDKRVMKMLCQTSKIHTIPVSRRELTPAQIKKLITPRPNGKILFKRIIHGNRLVDIKQSAYGSKQVFPTDVSIKQTNFYQGSIMSNEQKIRIENEIINLKNEYNDRKSTLDALSNQKSGYRHELSELASKNDDINREAHQLNEIRKKYTMRKSTIETLREKLDQLKREARKDVSQKIKDIDDQIQQLLLKQRHLLSKMASSMKSLKNCQKELISTQILQFEAQNMDVSMNDVIGFFNEREADLKSQYEDKKKFVKEMRDTPEFQSWMREIRSYDQDTKEKLNKVAEKYEEEGNFNLSFVQDVLDKLESEIAMVNHDESAVTILDQVTAELRELEHTVPQQSKDLETIKAKLKEDHAVLEPKLDDIVSKISARFARLFNNVGSAGAVRLEKPKDYAEWKIEIMVKFRDNAPLKKLDSHTQSGGERAVSTVLYMIALQEFTSAPFRVVDEINQGMDSRNERIVHKAMVENACAENTSQYFLITPKLLTGLHYHEKMRIHCVMAGSWIPNPSEDPKMIHFGETSNYSFD
B4: Nse6 (natural protein, S. cerevisiae, UniProt P40026 1-464, looked up)
chain: MGSVNSSPNEEFETVPDSQISGFDSPLIPTSVGSYFRDDDDDEKVHPNFISDPENDSLNSDEEFSSLENSDLNLSGAKAESGDDFDPILKRTIISKRKAPSNNEDEEIVKTPRKLVNYVPLKIFNLGDSFDDTITTTVAKLQDLKKEILDSPRSNKSIVITSNTVAKSELQKSIKFSGSIPEIYLDVVTKETISDKYKDWHFISKNCHYEQLMDLEMKDTAYSFLFGSSRSQGKVPEFVHLKCPSITNLLVLFGVNQEKCNSLKINYEKKENSRYDNLCTIFPVNKMLKFLMYFYSDDDNDDVREFFLKAFICLILDRKVFNAMESDHRLCFKVLELFNEAHFINSYFEIVDKNDFFLHYRLLQIFPHLQSALLRRRFSEKQGRTETIQQNIIKEFNEFFDCKNYKNLLYFILTMYGSKFIPFGPKCQVTEYFKDCILDISNETTNDVEISILKGILNLFSKIR

Assays:
Smc5 = biological target: B3; test: SEC
Smc6 = biological target: B1; test: co-purification

B1
stoichiometry N (Smc5): ~1

B2
stoichiometry N (Smc5): ~1

B3
binding result (Smc6): binds

B4
stoichiometry N (Smc5): ~1
